± gives the uncertainty stated by the source.

This data set can be described thus: self-splicing fitness, log relative to wild type (ln ratio); higher = more splicing; Tetrahymena group I intron in knt gene, E. coli kanamycin selection, DiMSum; sequences stand for … in CUCUCU…GGAGGGAAAAGUUAUCAGGCAUGCACCUGGUAGCUAGUCUUUAAACCAAUAGAUUGCAUCGGUUUAAAAGGCAAGACCGUCAAAUUGCGGGAAAGGGGUCAACAGCCGUUCAGUACCAAGUCUCAGGGGAAACUUUGAGAUGGCCUUGCAAAGGGUAUGGUAAUAAGCUGACGGACAUGGUCCUAACCACGCAGCCAAGUCCUAAGUCAACAGAUCUUCUGUUGAUAUGGAUGCAGUUCACAGACUAAAUGUCGGUCGGGGAAGAUGUAUUCUUCUCAUAAGAUAUAGUCGGACCUCUCCUUAAUGGGAGCUAGCGGAUGAAGUGAUGCAACACUGGAGCCGCUGGGAACUAAUUUGUAUGCGAAAGUAUAUUGAUUAGUUUUGGAGUACUCGUGGUCG
In a few lines:
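Library with all eight P1ex-region intron nucleotides randomised, intron inside the knt kanamycin-resistance gene on pET-22b(+), in E. coli BL21(DE3). Cells grew overnight at 37°C or 30°C on LB agar with or without 25 μg/mL kanamycin (plus 100 μg/mL carbenicillin, 50 μM IPTG, 0.2% rhamnose), in six replicate transformations. Pooled colonies were amplicon-sequenced on Illumina HiSeq 2500. DiMSum fitness is the error-weighted combination of wild-type-normalised replicate fold changes, kanamycin versus none.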

As to CCUGAGCAAUAUUACGACAU, the “self-splicing fitness (ln)” value (30 °C) is -3.785 ± 0.027 and the “self-splicing fitness (ln)” value (37 °C) was -2.87 ± 0.042.

Take CCUGAGCAAUAUUACGACCA: the “self-splicing fitness (ln)” value reads like this: (30 °C) -2.89 ± 0.44; (37 °C) -2.06 ± 0.38.

As to CCUGAGCAAUAUUACGAGGC, the “self-splicing fitness (ln)” value (30 °C) was -3.18 ± 0.43 and the “self-splicing fitness (ln)” value (37 °C) is -1.54 ± 0.26.

With CCUGAGCAAUAUUACGAUAG, the “self-splicing fitness (ln)” value by setting is: (30 °C) -1.55 ± 0.085; (37 °C) -0.775 ± 0.089.

Consider CCUGAGCAAUAUUACGAUCC, for which the “self-splicing fitness (ln)” value is -4.29 ± 0.47 (30 °C) and -2.96 ± 0.48 (37 °C).

Take CCUGAGCAAUAUUACGAUCG: the “self-splicing fitness (ln)” value reads like this: (30 °C) -3.71 ± 0.27; (37 °C) -3.46 ± 0.3.

As to CCUGAGCAAUAUUACGCAAC, the “self-splicing fitness (ln)” value runs as follows: (30 °C) -2.76 ± 0.33; (37 °C) -1.78 ± 0.27.

CCUGAGCAAUAUUACGCAAU: the “self-splicing fitness (ln)” value (30 °C) was -3.31 ± 0.19 and the “self-splicing fitness (ln)” value (37 °C) was -2.68 ± 0.24.

In the case of CCUGAGCAAUAUUACGCACG, the “self-splicing fitness (ln)” value (30 °C) is -3.16 ± 0.47 and the “self-splicing fitness (ln)” value (37 °C) was -2.09 ± 0.37.

Turning to CCUGAGCAAUAUUACGCACU, the “self-splicing fitness (ln)” value was -4.16 ± 0.3 (30 °C) and -2.8 ± 0.24 (37 °C).

For CCUGAGCAAUAUUACGCAGU, the “self-splicing fitness (ln)” value (30 °C) is -2.91 ± 0.2 and the “self-splicing fitness (ln)” value (37 °C) is -2.84 ± 0.28.

In the case of CCUGAGCAAUAUUACGCCGU, the “self-splicing fitness (ln)” value (30 °C) was -3.18 ± 0.45 and the “self-splicing fitness (ln)” value (37 °C) is -1.61 ± 0.39.

Regarding CCUGAGCAAUAUUACGCGUA, the “self-splicing fitness (ln)” value was -3.77 ± 0.34 (30 °C) and -2.33 ± 0.23 (37 °C).

For CCUGAGCAAUAUUACGCGUC, the “self-splicing fitness (ln)” value was -2.89 ± 0.27 (30 °C) and -3.02 ± 0.4 (37 °C).

CCUGAGCAAUAUUACGCUCC: the “self-splicing fitness (ln)” value (37 °C) is -3.8 ± 0.33.

As for CCUGAGCAAUAUUACGCUUA, the “self-splicing fitness (ln)” value by setting is: (30 °C) -2.31 ± 0.24; (37 °C) -2.27 ± 0.39.

As for CCUGAGCAAUAUUACGGAGG, the “self-splicing fitness (ln)” value (30 °C) is -3.56 ± 0.24 and the “self-splicing fitness (ln)” value (37 °C) was -2.54 ± 0.26.

Take CCUGAGCAAUAUUACGGAUG: the “self-splicing fitness (ln)” value runs as follows: (30 °C) -1.52 ± 0.057; (37 °C) -1.31 ± 0.078.

Take CCUGAGCAAUAUUACGGGUU: the “self-splicing fitness (ln)” value (30 °C) is -4.27 ± 0.34 and the “self-splicing fitness (ln)” value (37 °C) was -2.56 ± 0.31.

For CCUGAGCAAUAUUACGGUCA, the “self-splicing fitness (ln)” value (30 °C) is -2.92 ± 0.24 and the “self-splicing fitness (ln)” value (37 °C) was -2.46 ± 0.33.

Consider CCUGAGCAAUAUUACGUAAU, for which the “self-splicing fitness (ln)” value by setting is: (30 °C) -2.24 ± 0.2; (37 °C) -2.6 ± 0.25.

As for CCUGAGCAAUAUUACGUAUA, the “self-splicing fitness (ln)” value (30 °C) was -3.53 ± 0.23 and the “self-splicing fitness (ln)” value (37 °C) was -2.51 ± 0.24.

Consider CCUGAGCAAUAUUACGUGGC, for which the “self-splicing fitness (ln)” value (30 °C) was -3.15 ± 0.24.

Take CCUGAGCAAUAUUACGUUUA: the “self-splicing fitness (ln)” value is -3.15 ± 0.15 (30 °C) and -1.57 ± 0.17 (37 °C).

CCUUAGCAAUAUUACGAGGU: the “self-splicing fitness (ln)” value is -4.03 ± 0.15 (30 °C) and -2.52 ± 0.15 (37 °C).

For the sequence CCUUAGCAAUAUUACGAGUG, the “self-splicing fitness (ln)” value by setting is: (30 °C) -1.07 ± 0.082; (37 °C) 0.122 ± 0.11.

In the case of CCUUAGCAAUAUUACGAUAG, the “self-splicing fitness (ln)” value runs as follows: (30 °C) -2.77 ± 0.12; (37 °C) -2.37 ± 0.18.

Regarding CCUUAGCAAUAUUACGAUCA, the “self-splicing fitness (ln)” value (37 °C) was -2.51 ± 0.38.

CCUUAGCAAUAUUACGCCAA: the “self-splicing fitness (ln)” value reads like this: (30 °C) -2.7 ± 0.34; (37 °C) -0.755 ± 0.31.

CCUUAGCAAUAUUACGCCUA: the “self-splicing fitness (ln)” value is, setting by setting: (30 °C) -2.69 ± 0.48; (37 °C) -1.4 ± 0.35.

For the sequence CCUUAGCAAUAUUACGGCAC, the “self-splicing fitness (ln)” value reads like this: (30 °C) -3.69 ± 0.29; (37 °C) -2.71 ± 0.44.

CCUUAGCAAUAUUACGGCCU: where the note is “37 °C”, the “self-splicing fitness (ln)” value was -0.938 ± 0.34.

As for CCUUAGCAAUAUUACGGCUA, the “self-splicing fitness (ln)” value is -2.52 ± 0.45 (30 °C) and -1.75 ± 0.37 (37 °C).

As for CCUUAGCAAUAUUACGGGCU, the “self-splicing fitness (ln)” value is, setting by setting: (30 °C) -4.07 ± 0.28; (37 °C) -2.87 ± 0.22.

On to CCUUAGCAAUAUUACGGGGU, for which the “self-splicing fitness (ln)” value runs as follows: (30 °C) -4.43 ± 0.28; (37 °C) -2.08 ± 0.19.

As for CCUUAGCAAUAUUACGUAAC, the “self-splicing fitness (ln)” value reads like this: (30 °C) -4.41 ± 0.22; (37 °C) -2.41 ± 0.18.

Turning to CCUUAGCAAUAUUACGUAUC, the “self-splicing fitness (ln)” value (30 °C) was -4.15 ± 0.27 and the “self-splicing fitness (ln)” value (37 °C) was -2.17 ± 0.26.

For CCUUAGCAAUAUUACGUGUG, the “self-splicing fitness (ln)” value reads like this: (30 °C) -1.61 ± 0.063; (37 °C) -0.595 ± 0.078.

Regarding CGAAAGCAAUAUUACGACUA, the “self-splicing fitness (ln)” value was -1.51 ± 0.14 (30 °C) and -0.539 ± 0.13 (37 °C).

These data come from the supplement of paper PMC7877785.
